Article PMC2847151 (Neurogenetics, 2009)
Where a chain is given by its changes, count along the chain named. Names may count otherwise.

B1: wildtype: wild-type MED25 protein (ARC92/ACID1); also as GAL4 fusion, full-length clone (1–754) (protein, UniProt Q71SY5 1-747, looked up)
chain: MVPGSEGPARAGSVVADVVFVIEGTANLGPYFEGLRKHYLLPAIEYFNGGPPAETDFGGDYGGTQYSLVVFNTVDCAPESYVQCHAPTSSAYEFVTWLDGIKFMGGGGESCSLIAEGLSTALQLFDDFKKMREQIGQTHRVCLLICNSPPYLLPAVESTTYSGCTTENLVQQIGERGIHFSIVSPRKLPALRLLFEKAAPPALLEPLQPPTDVSQDPRHMVLVRGLVLPVGGGSAPGPLQSKQPVPLPPAAPSGATLSAAPQQPLPPVPPQYQVPGNLSAAQVAAQNAVEAAKNQKAGLGPRFSPITPLQQAAPGVGPPFSQAPAPQLPPGPPGAPKPPPASQPSLVSTVAPGSGLAPTAQPGAPSMAGTVAPGGVSGPSPAQLGAPALGGQQSVSNKLLAWSGVLEWQEKPKPASVDANTKLTRSLPCQVYVNHGENLKTEQWPQKLIMQLIPQQLLTTLGPLFRNSRMVQFHFTNKDLESLKGLYRIMGNGFAGCVHFPHTAPCEVRVLMLLYSSKKKIFMGLIPYDQSGFVNGIRQVITNHKQVQQQKLEQQQRGMGGQQAPPGLGPILEDQARPSQNLLQLRPPQPQPQGTVGASGATGQPQPQGTAQPPPGAPQGPPGAASGPPPPGPILRPQNPGANPQLRSLLLNPPPPQTGVPPPQASLHHLQPPGAPALLPPPHQGLGQPQLGPPLLHPPPAQSWPAQLPPRAPLPGQMLLSGGPRGPVPQPGLQPSVMEDDILMDLI
modifications: full-length also GAL4 fusion
B2: mutant MED25: MED25 protein carrying the p.A335V mutation; also as GAL4 fusion, full-length clone (1–754) (protein, UniProt Q71SY5 1-747, looked up, variant A335V)
chain: B1 chain with A335V
modifications: full-length also GAL4 fusion

Test system: Mediator
Assay: Binding to Mediator upon transfection into HeLa cells
Conditions: wild-type vs mutant

| Molecule | binding to Mediator |
| --- | --- |
| B1 | bound indistinguishably to Mediator |
| B2 | bound indistinguishably to Mediator |
